Target: T1, Trx-RhopH3-C (P. falciparum RhopH3 amino acids 620-897 with Trx and His tags) (Plasmodium falciparum, UniProt Q8I395 620-897)
T1 sequence: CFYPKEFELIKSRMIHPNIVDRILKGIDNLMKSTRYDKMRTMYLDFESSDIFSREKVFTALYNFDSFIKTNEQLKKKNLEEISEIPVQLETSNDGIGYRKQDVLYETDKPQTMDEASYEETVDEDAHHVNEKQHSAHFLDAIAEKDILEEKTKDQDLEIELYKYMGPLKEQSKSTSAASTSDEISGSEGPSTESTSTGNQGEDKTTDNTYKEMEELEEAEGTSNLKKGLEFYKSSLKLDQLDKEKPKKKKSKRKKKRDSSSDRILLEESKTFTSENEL
Assay: ELISA

B1: GST-5ABC (5ABC region of human erythrocyte band 3, amino acids 720-761, as GST fusion protein) (domain or fragment, UniProt P02730 720-761, looked up)
chain: GMPWLSATTVRSVTHANALTVMGKASTPGAAAQIQEVKEQRI
B1 was tested, and the Kd was 183 ± 0.111 nM.

From article PMC4198471 (Biochimica et biophysica acta, 2014)
